The values that follow come from paper PMC3958441, “Isl1 and Pou4f2 Form a Complex to Regulate Target Genes in Developing Retinal Ganglion Cells” (PLoS ONE, 2014).

Series [1] has as its target T1, Pou4f2D5;Isl1 (mouse;mouse, UniProt Q63934;P61372 125-411;1-349, |).
T1 sequence 1: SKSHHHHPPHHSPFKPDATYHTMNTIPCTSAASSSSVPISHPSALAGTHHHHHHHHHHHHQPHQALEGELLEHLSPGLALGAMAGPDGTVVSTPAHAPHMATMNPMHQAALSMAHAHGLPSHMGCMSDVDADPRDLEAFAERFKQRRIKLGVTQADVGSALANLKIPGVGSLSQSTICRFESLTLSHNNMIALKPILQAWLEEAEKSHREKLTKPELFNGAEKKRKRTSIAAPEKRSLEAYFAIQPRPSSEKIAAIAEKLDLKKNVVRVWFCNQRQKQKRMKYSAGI
T1 sequence 2: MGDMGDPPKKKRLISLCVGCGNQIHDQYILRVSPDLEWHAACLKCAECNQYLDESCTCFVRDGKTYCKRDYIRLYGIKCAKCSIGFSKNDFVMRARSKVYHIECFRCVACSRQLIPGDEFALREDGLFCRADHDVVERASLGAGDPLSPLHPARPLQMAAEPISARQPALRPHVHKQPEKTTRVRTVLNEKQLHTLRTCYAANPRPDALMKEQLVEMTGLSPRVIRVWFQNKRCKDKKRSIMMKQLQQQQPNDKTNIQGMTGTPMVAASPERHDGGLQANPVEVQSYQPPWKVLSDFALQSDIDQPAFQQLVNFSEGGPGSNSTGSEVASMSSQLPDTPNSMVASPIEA
Briefly: EMSA; ternary complex; EMSA: 20 mM Tris-HCl pH 7.5, 50 mM NaCl, 10 mM DTT, 1 mM EDTA, 5% glycerol, 200 ng dI/dC, 200 ng each protein in 20 ul, 4 C, 30 min; 8% PAGE, 1x TBE, 4 C. As to conditions: protein: recombinant;recombinant, tags: His (C-terminal);His (C-terminal, pET-28a), copies: 1;1.

For series [2], the target named is T2, Pou4f2 (Brn3b);Isl1 (mouse;mouse, UniProt Q63934;P61372 1-411;1-349, |).
T2 sequence 1: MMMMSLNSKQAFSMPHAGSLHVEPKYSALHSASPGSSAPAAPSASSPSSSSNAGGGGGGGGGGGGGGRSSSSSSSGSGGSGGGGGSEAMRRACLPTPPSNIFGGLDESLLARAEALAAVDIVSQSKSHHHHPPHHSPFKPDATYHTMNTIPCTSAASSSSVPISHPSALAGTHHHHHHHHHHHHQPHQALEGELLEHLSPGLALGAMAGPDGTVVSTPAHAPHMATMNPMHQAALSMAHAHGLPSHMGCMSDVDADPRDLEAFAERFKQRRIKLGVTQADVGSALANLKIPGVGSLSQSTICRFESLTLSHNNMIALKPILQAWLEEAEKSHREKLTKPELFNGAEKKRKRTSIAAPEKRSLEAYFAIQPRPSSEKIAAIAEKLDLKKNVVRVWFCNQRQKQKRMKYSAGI
T2 sequence 2: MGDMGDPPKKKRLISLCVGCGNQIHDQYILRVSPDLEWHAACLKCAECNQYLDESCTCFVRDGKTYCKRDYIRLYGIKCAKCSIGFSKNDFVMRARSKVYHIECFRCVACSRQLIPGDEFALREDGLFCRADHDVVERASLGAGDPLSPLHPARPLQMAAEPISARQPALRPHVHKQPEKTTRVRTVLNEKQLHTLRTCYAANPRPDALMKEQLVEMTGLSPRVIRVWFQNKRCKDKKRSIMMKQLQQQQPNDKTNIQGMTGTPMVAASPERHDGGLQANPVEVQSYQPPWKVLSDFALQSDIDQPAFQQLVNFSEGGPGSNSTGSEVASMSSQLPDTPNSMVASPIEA
The series is described as above. As to conditions: protein: recombinant;recombinant; tags: His (C-terminal, pET-28a);His (C-terminal, pET-28a); copies: 1;1; (radiolabel, Klenow fill-in); 5' overhang 1 nt at both ends before fill-in.

For series [3], the target named is T3, Isl1D4;Pou4f2 (Brn3b) (mouse;mouse, UniProt P61372;Q63934 146-349;1-411, |).
T3 sequence 1: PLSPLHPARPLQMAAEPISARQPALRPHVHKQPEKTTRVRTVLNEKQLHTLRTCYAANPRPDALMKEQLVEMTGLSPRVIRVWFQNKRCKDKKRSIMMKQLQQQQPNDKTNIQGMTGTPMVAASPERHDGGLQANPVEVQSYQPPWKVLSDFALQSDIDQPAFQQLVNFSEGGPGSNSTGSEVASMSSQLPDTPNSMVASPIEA
T3 sequence 2: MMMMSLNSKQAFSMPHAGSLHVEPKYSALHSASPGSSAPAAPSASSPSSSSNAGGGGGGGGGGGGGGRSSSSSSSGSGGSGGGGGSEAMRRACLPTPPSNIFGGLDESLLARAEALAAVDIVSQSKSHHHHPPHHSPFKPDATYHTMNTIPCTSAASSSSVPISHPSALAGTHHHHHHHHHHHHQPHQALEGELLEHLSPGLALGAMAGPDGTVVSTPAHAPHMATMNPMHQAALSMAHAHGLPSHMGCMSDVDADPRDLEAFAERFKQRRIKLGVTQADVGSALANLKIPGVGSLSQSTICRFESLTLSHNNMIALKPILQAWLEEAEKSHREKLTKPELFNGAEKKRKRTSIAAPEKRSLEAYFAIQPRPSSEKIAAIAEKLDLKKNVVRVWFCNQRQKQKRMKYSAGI
Described as above. Particulars: protein: recombinant;recombinant; tags: His (C-terminal);His (C-terminal, pET-28a); copies: 1;1; (radiolabel, Klenow fill-in); 5' overhang 1 nt at both ends before fill-in.

Series [4] addresses T4, Isl1D5;Pou4f2 (Brn3b) (mouse;mouse, UniProt P61372;Q63934 74-349;1-411, |).
T4 sequence 1: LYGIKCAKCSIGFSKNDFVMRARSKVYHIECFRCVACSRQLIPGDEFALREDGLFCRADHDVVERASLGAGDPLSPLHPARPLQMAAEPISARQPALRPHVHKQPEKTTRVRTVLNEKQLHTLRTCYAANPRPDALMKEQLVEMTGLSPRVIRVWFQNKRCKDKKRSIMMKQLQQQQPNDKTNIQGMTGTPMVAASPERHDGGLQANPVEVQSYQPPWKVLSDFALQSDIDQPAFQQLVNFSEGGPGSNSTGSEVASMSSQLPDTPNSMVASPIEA
T4 sequence 2: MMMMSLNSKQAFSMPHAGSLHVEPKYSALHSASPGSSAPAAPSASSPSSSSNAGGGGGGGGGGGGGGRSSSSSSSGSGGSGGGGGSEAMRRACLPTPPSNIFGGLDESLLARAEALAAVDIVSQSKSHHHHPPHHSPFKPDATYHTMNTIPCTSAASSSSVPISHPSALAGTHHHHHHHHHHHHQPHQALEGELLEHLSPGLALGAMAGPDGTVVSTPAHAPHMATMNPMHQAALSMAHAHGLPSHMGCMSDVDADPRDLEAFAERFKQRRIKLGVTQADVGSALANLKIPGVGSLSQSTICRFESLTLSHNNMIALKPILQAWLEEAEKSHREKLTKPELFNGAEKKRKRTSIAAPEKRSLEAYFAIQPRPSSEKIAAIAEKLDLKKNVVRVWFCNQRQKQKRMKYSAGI
The series is described as above. As to conditions: protein: recombinant;recombinant; tags: His (C-terminal);His (C-terminal, pET-28a); copies: 1;1; (radiolabel, Klenow fill-in); 5' overhang 1 nt at both ends before fill-in.

Series [5] deals with T5, Pou4f2D4;Isl1 (mouse;mouse, UniProt Q63934;P61372 169-411;1-349, |).
T5 sequence 1: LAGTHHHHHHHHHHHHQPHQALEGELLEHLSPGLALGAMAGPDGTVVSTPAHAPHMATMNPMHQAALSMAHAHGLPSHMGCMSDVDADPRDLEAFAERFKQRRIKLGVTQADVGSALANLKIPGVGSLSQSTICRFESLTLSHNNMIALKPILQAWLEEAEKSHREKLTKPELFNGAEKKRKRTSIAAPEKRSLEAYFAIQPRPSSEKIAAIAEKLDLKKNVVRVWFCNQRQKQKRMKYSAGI
T5 sequence 2: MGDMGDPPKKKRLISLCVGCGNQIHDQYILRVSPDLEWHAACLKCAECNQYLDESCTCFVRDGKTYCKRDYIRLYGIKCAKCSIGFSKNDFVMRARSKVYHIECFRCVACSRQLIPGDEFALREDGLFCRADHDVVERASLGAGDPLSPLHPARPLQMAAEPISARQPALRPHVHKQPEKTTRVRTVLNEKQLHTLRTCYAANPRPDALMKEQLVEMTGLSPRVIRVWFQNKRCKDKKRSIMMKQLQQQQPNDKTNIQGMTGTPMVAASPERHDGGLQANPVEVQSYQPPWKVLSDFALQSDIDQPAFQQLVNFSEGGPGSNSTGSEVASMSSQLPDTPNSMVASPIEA
The description is as above. Particulars: protein: recombinant;recombinant; tags: His (C-terminal);His (C-terminal, pET-28a); copies: 1;1; (radiolabel, Klenow fill-in); 5' overhang 1 nt at both ends before fill-in.

Series [6] concerns the target T6, Isl1D3;Pou4f2 (Brn3b) (mouse;mouse, UniProt P61372;Q63934 170-349;1-411, |).
T6 sequence 1: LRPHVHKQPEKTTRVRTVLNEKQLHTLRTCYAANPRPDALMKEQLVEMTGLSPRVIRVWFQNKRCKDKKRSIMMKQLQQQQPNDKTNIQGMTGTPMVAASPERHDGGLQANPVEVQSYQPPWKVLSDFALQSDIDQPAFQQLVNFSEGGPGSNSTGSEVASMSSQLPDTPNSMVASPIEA
T6 sequence 2: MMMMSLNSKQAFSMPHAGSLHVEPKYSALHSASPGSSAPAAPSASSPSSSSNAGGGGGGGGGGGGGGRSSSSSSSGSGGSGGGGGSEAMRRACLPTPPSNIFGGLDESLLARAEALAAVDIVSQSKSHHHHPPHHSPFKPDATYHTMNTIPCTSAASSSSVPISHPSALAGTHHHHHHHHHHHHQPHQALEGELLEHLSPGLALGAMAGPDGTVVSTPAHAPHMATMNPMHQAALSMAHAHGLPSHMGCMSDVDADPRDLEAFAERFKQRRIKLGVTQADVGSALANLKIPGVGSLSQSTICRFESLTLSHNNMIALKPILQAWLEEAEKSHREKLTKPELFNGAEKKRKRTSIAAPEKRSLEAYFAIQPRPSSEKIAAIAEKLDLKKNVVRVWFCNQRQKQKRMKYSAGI
The series is described as above. As to conditions: protein: recombinant;recombinant; tags: His (C-terminal);His (C-terminal, pET-28a); copies: 1;1; (radiolabel, Klenow fill-in); 5' overhang 1 nt at both ends before fill-in.

The target of series [7] is T1, Pou4f2D5;Isl1. Briefly: EMSA; EMSA: 20 mM Tris-HCl pH 7.5, 50 mM NaCl, 10 mM DTT, 1 mM EDTA, 5% glycerol, 200 ng dI/dC, 200 ng each protein in 20 ul, 4 C, 30 min; 8% PAGE, 1x TBE, 4 C. Particulars: protein: recombinant;recombinant, tags: His (C-terminal);His (C-terminal, pET-28a), copies: 1;1.
Series [8] has as its target T2, Pou4f2 (Brn3b);Isl1. Described as above. Particulars: protein: recombinant;recombinant; tags: His (C-terminal, pET-28a);His (C-terminal, pET-28a); copies: 1;1; (radiolabel, Klenow fill-in); 5' overhang 1 nt at both ends before fill-in.
Setting [9] is: (radiolabel, Klenow fill-in), 5' overhang 1 nt at both ends before fill-in.

B1: IRX6(W) (dsDNA)
DNA 1: GTACTACTAATTAATTAATTGCAAACATTTC
DNA 2: GGAAATGTTTGCAATTAATTAATTAGTAGTA
Regarding B1, the binding result in series [1] (setting [9]) was “binds”.

B2: EBF3(W) (dsDNA)
DNA 1: GTGCGTTAATATTTTAATTAATCGGGAAAA
DNA 2: TTTTCCCGATTAATTAAAATATTAACGCAC
Take B2: in series [1] ((radiolabel, Klenow), blunt), the binding result is reported as “binds”.

B3: CBRN3(W) (dsDNA)
DNA 1: GATCTCTCCTGCATAATTAATTACCCCCGGAT
DNA 2: GATCCGGGGGTAATTAATTATGCAGGAGAGAT
For B3, the binding result in series [2], in series [3], in series [1] (setting [9]), in series [4], in series [5] and in series [6] was “binds” in each case.

B4: EBF3(M) (dsDNA)
DNA 1: GTGCGTTGCTATTTTCGTTGCTCGGGAAAA
DNA 2: TTTTCCCGAGCAACGAAAATAGCAACGCAC
Regarding B4, the binding result in series [7] ((radiolabel, Klenow), blunt) is given as “no binding”.

B5: SBRN3(M) (dsDNA)
DNA 1: GCACACGACCCAGCGCGTTGACAACCGGGCTG
DNA 2: GCAGCCCGGTTGTCAACGCGCTGGGTCGTGTG
In the case of B5, the binding result in series [8] is given as “no binding”.

B6: CBRN3(M) (dsDNA)
DNA 1: GATCTCTCCTGCGCGGTTGACTACCCCCGGAT
DNA 2: GATCCGGGGGTAGTCAACCGCGCAGGAGAGAT
As to B6, the binding result in series [8] is on record as “no binding”.

B7: SBRN3(W) (dsDNA)
DNA 1: GCACACGACCCAATGAATTAATAACCGGGCTG
DNA 2: GCAGCCCGGTTATTAATTCATTGGGTCGTGTG
On to B7, for which the binding result in series [2], in series [3], in series [1] (setting [9]), in series [4], in series [5] and in series [6] was “binds” throughout.

B8: IRX6(M) (dsDNA)
DNA 1: TACTACTGCTTCGTTGCTTGCAAACATTTC
DNA 2: GGAAATGTTTGCAAGCAACGAAGCAGTAGTA
Consider B8, for which the binding result in series [7] ((radiolabel, Klenow fill-in), one end blunt, lower strand 5' overhang 1 nt before fill-in) is “no binding”.
